From patent US20090291088A1 (Biogen, published 2009)

Assays:
[1] = target: cynomolgus IGF-1R expressed on cells (cynomolgus macaque, UniProt G7P9I7 31-1343); experiment: binding to CHO transfectants
[2] = target: T1, Rhesus IGF-1R expressed on CHO cells (rhesus monkey, UniProt I2CWY3 31-1367); experiment: binding to CHO transfectants
T1 construct: whole, on cells; also called Rhesus IGF-1R/CHO

human IGF-1R(1-903)-Fc [3] = target: T2, human IGF-1R(1-903)-Fc (human, UniProt P08069 31-933); experiment: ELISA on hIGF-1R-Fc, competitor biotinylated M13-C06
T2 construct: Made by Biogen Idec; Multimerises through IGF-1R and Fc; also called hIGF-1R-Fc; IGF-1R-Fc; not shown: C-terminal human IgG1-Fc tag

[4] = target: T3, rat IGF-1R expressed on immune cells (rat, UniProt P24062 31-1370); experiment: FACS on granulocytes, monocytes, lymphocytes
T3 construct: whole, on cells
T3 sequence (P24062 31-1370): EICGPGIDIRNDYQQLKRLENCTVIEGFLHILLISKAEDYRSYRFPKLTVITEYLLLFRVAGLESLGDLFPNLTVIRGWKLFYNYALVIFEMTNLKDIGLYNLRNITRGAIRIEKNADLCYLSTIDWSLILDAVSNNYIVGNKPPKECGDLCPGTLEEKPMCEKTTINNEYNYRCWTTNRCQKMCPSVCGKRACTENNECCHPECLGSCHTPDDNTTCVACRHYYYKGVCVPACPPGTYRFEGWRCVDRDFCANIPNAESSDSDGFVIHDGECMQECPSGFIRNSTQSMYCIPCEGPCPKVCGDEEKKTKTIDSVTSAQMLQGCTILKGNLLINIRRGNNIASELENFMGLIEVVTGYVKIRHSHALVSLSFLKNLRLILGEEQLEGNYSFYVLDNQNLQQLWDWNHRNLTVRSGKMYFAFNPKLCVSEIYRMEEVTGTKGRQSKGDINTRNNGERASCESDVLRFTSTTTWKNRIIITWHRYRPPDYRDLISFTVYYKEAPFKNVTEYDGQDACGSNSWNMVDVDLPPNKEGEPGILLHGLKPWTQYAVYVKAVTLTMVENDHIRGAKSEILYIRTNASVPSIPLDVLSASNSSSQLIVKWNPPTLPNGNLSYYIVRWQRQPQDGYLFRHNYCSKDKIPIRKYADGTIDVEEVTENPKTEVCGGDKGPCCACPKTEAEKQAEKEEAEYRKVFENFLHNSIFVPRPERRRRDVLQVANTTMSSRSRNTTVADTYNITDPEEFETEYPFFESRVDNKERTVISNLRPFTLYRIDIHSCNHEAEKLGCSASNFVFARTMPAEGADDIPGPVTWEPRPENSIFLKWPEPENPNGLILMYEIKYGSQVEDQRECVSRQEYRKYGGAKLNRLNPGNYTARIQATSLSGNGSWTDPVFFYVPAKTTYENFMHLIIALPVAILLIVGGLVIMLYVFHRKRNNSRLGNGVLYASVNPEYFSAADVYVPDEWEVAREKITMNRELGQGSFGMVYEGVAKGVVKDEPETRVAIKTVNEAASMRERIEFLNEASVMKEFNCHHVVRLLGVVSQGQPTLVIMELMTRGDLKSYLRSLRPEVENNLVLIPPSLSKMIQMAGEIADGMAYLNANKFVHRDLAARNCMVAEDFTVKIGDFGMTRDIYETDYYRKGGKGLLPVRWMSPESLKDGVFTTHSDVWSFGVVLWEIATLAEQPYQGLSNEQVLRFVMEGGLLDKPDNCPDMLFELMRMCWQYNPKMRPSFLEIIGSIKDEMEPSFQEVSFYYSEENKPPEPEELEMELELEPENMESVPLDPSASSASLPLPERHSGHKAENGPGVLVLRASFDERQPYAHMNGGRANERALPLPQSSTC

human IGF-1R(1-903)-Fc [5] = target: T2, human IGF-1R(1-903)-Fc; experiment: competition ELISA: biotinylated hIGF-1R-Fc on streptavidin plate, 320 nM human IGF-1 His, detection with anti-His-HRP; blocked ligand human IGF-1 His
Protocol: hIGF-1R-Fc was biotinylated using EZ-Link Sulfo-NHS-LC-Biotin according to the protocol provided by the manufacturer (Pierce Cat. No. 21335). Biotinylated human IGF-1R-Fc at 5 μg/ml was added to the wells of SigmaScreen streptavidin-coated 96-well plates (Sigma, Cat. No. M5432-5EA; Sigma-Aldrich Corp. (St. Louis, Mo., USA)) at 100 μL/well and incubated overnight at 2-8° C. The plates were then washed four times with 200 μL/well PBST. […] The dilutions were added to the plates in duplicate at 100 μL/well and the plates were incubated at RT for 1 hour. The plates were then washed four times with 200 μL/well PBST. An HRP-conjugated anti-Histag antibody (Penta-His HRP Conjugate, QIAGEN, Cat. No. 1014992) was diluted 1:1000 in PBST and added to plates at 100 μL/well, and the plates were incubated at RT for one hour. The plates were then washed four times with 200 μL/well PBST. SureBlue Reserve TMB Microwell Peroxidase Substrate (KPL, Cat. No. 53-00-01) was added to plates at 100 μL/well followed by 1% phosphoric acid at 100 μL/well once the desired reaction was observed. The absorbance of each well was determined at 450 nm, and the results were normalized and plotted against the log of antibody concentration.

[6] = target: T4, human IGF-1R(1-902)-His10 (human, UniProt P08069 31-932); experiment: SPR, antibody over IGF-1R-10His captured by anti-His, 1:1 model, approximate
T4 construct: Cy5-labelled in tr-FRET; also called hIGF-1R-His10; IGF-1R-His
Protocol: All surface plasmon resonance (SPR) experiments were performed on a Biacore 3000 set to 25° C. using HBS-EP (Biacore, Cat. No. BR-1001-88) as the running buffer. A biotin-labeled anti-HisTag antibody (biotin-PENTA-His, Qiagen Cat. No. 34440) was immobilized to saturation on a Biacore SA chip (Cat. No. BR-1000-32) surface by injection at 500 nM in HBS-EP buffer. […] Subsequent to IGF-1R injections, flow rates were increased to 20 μL/min. A second, 130 μL injection of anti-IGF-1R antibody or Fab was performed to investigate interactions with the receptor. Each antibody and Fab was serially diluted from 64 nM to 0.5 nM to obtain concentration dependent kinetic binding curves. Each injection series was regenerated using 3×10 μL injections of 10 mM Acetate, pH 4.0, at 20 μL/min. Each curve was double referenced using (1) data obtained from a streptavidin surface devoid of IGF-1R and (2) data from a primary injection of IGF-1R followed by a secondary injection of HBS-EP buffer. […]
(§1) The rates at which the antibodies accumulate on the IGF-1R coated surface when applied at various concentrations as well as the rates at which they dissociated during applications of pure buffer were investigated by fitting the data to a 1:1 binding model. Approximate kinetic rate constants and equilibrium dissociation constant were calculated (Table 14).

[7] = target: T5, IGF-1R (soluble, construct not stated) (human, UniProt P08069 31-932, limits assumed); experiment: ligand blocking, competitor IGF-2; IGF-2 as the blocked ligand
T5 construct: whole entry named; also called Solube IGF-1R Protein; soluble recombinant human IGF-1R

[8] = target: T6, human IGF-1R expressed on cells (human, UniProt P08069 31-1367); experiment: binding to tumor cells
T6 construct: On MCF-7 tumor cells or on 3T3/CHO transfectants; precursor is processed into alpha and beta subunits; Signal peptide 1-30 left out as stated; also called wild type IGF-1R; IGF-1R 3T3

human INSR(28-956)-His10 = target: T7, human INSR(28-956)-His10 (human, UniProt P06213 28-956); experiment: SPR, INSR over immobilised antibody
T7 construct: range 28-956; Bought (R&D Systems 1544-IR); also called rh-INSR; soluble insulin receptor

[9] = target: T4, human IGF-1R(1-902)-His10; experiment: SPR, antibody over captured IGF-1R-10His
Protocol: All surface plasmon resonance (SPR) experiments were performed on a Biacore 3000 set to 25° C. using HBS-EP (Biacore, Cat. No. BR-1001-88) as the running buffer. A biotin-labeled anti-HisTag antibody (biotin-PENTA-His, Qiagen Cat. No. 34440) was immobilized to saturation on a Biacore SA chip (Cat. No. BR-1000-32) surface by injection at 500 nM in HBS-EP buffer. […] Subsequent to IGF-1R injections, flow rates were increased to 20 μL/min. A second, 130 μL injection of anti-IGF-1R antibody or Fab was performed to investigate interactions with the receptor. Each antibody and Fab was serially diluted from 64 nM to 0.5 nM to obtain concentration dependent kinetic binding curves. Each injection series was regenerated using 3×10 μL injections of 10 mM Acetate, pH 4.0, at 20 μL/min. Each curve was double referenced using (1) data obtained from a streptavidin surface devoid of IGF-1R and (2) data from a primary injection of IGF-1R followed by a secondary injection of HBS-EP buffer. The concentration series for each antibody and Fab was fit to the 1:1 binding model provided within the BiaEvaluation software of the manufacturer.
as §1

human IGF-1R(1-903)-Fc [10] = target: T2, human IGF-1R(1-903)-Fc; experiment: ELISA, plate coated with soluble IGF-1 receptor Fc fusion protein, detection with anti-human kappa-HRP
Protocol: The plate was washed with phosphate-buffered saline (PBS, Irvine Scientific, Cat#9240), pH 7.4 plus 0.025% Tween 20 in the Skan Washer 300 (Skatron Instruments), blocked with buffer containing 1% nonfat milk, 0.05% Tween 20 in PBS, pH 7.4, and then incubated at room temperature for 1 hour. After incubation plate was washed with PBS plus 0.025% Tween 20 in the Skan Washer 300. […] Following a one hour incubation at room temperature, plate was washed with PBS plus 0.025% Tween 20 in the Skan Washer 300. […] Plate incubated for 1 hour at room temperature was washed with PBS plus 0.025% Tween 20 in the Skan Washer 300. […] The absorbance was measured at 450 nm, background 540 nm for TMB using the Molecular Devices plate reader. Data was analyzed using the SOFTMAX PRO software package version 4.3 LS (Molecular Devices Corp.).

[11] = target: T6, human IGF-1R expressed on cells; experiment: cell-based or functional assay
[12] = target: T8, human insulin receptor expressed in mammalian cells (UniProt P06213 28-1382, limits assumed); experiment: immunoprecipitation from IR CHO lysate, western blot with mouse anti-human IR
T8 construct: whole, on cells; Cells were solubilised with Triton X-100 before immunoprecipitation; also called INSR; IR
Protocol: Recombinant IGF-1R and insulin receptor (IR) were independently expressed in mammalian cells (3T3 or CHO). […] Antibody/antigen complexes were released from the beads by acid treatment, applied to Tris-Glycine SDS-PAGE gels and blotted to nitrocellulose membranes. Detection was performed using mouse anti-human IR (FIG. 24A) or mouse anti-human IGF-1R (FIG. 24B) and goat α-mouse IgG.

[13] = target: T5, IGF-1R (soluble, construct not stated …); experiment: ligand blocking, competitor IGF-1; IGF-1 as the blocked ligand
[14] = target: T5, IGF-1R (soluble, construct not stated …); experiment: binding to soluble IGF-1R protein
human IGF-1R(1-903)-Fc [15] = target: T2, human IGF-1R(1-903)-Fc; experiment: competition ELISA: biotinylated hIGF-1R-Fc on streptavidin plate, 320 nM human IGF-2 His, detection with anti-His-HRP; blocked ligand human IGF-2 His

T1 sequence (I2CWY3 entry or part of it): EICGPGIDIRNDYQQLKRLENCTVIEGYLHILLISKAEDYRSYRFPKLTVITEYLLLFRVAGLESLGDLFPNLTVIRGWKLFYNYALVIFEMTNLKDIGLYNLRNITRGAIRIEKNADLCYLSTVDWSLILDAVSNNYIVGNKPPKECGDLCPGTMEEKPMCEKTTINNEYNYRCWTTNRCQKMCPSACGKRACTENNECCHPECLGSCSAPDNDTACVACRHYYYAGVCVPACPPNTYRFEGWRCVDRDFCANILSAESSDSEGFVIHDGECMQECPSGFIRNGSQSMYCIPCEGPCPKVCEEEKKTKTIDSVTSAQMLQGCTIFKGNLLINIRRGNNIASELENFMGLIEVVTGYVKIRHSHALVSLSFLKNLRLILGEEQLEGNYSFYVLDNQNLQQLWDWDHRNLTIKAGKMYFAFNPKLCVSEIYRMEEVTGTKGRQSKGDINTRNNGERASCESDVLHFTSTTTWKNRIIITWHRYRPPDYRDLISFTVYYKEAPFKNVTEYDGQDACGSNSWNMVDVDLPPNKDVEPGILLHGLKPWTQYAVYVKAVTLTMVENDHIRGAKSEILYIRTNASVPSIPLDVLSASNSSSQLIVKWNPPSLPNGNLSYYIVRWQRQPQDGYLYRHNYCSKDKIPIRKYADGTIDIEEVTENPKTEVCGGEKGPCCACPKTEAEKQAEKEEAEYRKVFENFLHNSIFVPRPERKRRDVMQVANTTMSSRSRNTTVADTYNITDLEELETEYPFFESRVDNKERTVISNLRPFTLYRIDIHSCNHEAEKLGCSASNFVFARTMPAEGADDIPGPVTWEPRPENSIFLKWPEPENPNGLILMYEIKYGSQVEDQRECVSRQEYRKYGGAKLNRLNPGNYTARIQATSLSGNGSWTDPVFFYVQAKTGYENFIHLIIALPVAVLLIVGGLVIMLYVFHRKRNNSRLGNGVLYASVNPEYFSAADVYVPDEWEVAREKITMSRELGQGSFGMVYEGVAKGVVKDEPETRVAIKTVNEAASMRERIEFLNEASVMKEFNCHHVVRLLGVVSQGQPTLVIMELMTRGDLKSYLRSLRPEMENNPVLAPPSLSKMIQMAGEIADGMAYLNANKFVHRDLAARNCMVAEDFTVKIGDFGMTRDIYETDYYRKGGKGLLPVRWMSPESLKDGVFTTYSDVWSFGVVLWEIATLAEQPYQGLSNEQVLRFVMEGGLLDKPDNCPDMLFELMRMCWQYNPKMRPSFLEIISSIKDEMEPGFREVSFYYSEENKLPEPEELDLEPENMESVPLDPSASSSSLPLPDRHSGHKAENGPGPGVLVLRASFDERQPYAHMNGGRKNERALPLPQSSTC

B1: M13-C06.G4.P.agly (antibody, human IgG4 S228P, kappa, V domains shown)
VH: EVQLLESGGGLVQPGGSLRLSCAASGFTFSIYRMQWVRQAPGKGLEWVSGISPSGGTTWYADSVKGRFTISRDNSKNTLYLQMNSLRAEDTAVYYCARWSGGSGYAFDIWGQGTMVTVSS
VL: DIQMTQSPLSLSASVGDRVTITCQASRDIRNYLNWYQQKPGKAPKLLIYDASSLQTGVPSRFGGSGSGTDFSFTIGSLQPEDIATYYCQQFDSLPHTFGQGTKLEIKR
notes: Full-length human aglycosylated IgG4.P (S228P/T299A, EU), kappa; Places that say only 'M13-C06 antibody' were assigned to this version; Labelled with Eu chelate or biotin in some assays; also called M13-C06_Ab; Eu-C06
- EC50 [1]: 0.47 nM
- EC50 [2]: 0.27 nM
- percent competition (relative to self-competition) (human IGF-1R(1-903)-Fc [3]): 90 to 100%
- binding result [4]: no binding
- IC50 (read off the curve) (human IGF-1R(1-903)-Fc [5]): ~1 nM
- Kd [6]: 0.13 nM
- IC50 [7]: 0.525 nM
- EC50 [8]: 0.22 nM
- binding result (human INSR(28-956)-His10): no binding (tested: 2 µM)
- koff [9]: 0.00025 s⁻¹
- kon [9]: 1.8e+06 M⁻¹ s⁻¹
- EC50 (read off the curve) (human IGF-1R(1-903)-Fc [10]): ~0.04 nM
- inhibition of IGF-1 and IGF-2 mediated IGF-1R receptor phosphorylation (EC50) [11]: < 1 nM
- binding result [12]: no binding
- IC50 [13]: 0.979 nM
- EC50 [14]: 0.0422 nM
- IC50 (read off the curve) (human IGF-1R(1-903)-Fc [15]): ~1 nM
